Biological target: T1, HBsAg protein (hepatitis B virus surface antigen) (hepatitis B virus, UniProt P03140 175-400)
T1 construct: Coated on the ELISA plate at 20 ug/ml; also called HBsAg antigen
Assay: ELISA on coated HBsAg; grade from OD450 ratio to 021 at 4 ug/ml

T1 sequence (P03140 175-400, tags left off): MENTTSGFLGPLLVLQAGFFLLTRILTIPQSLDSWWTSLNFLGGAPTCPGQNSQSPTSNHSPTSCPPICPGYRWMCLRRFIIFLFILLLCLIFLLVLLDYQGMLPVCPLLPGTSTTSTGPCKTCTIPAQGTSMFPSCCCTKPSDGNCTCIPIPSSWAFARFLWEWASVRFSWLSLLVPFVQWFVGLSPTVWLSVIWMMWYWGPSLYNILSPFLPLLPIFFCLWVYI

Row | Binder | ratio of OD450 at 4 ug/ml to OD450 of antibody 021 at 4 ug/ml [ratio]
1 | antibody 021-M34 (antibody, human IgG1, kappa, V domains shown, 021 with X34 (LCDR1) Q to A) VH: not shown VL: DIQLTQSPSSLSASVGDRVTITCRASASISTYLNWYQQKPGKAPKLLIYAASSLQSGVPSRFSGSGSGTDFTLTISSLQPEDFATYYCQQSYSTPLTFGGGTKVDIKR | 0.8 to 1.1
2 | antibody 093 (antibody, human IgG1, kappa, V domains shown) VH: EVQLVQSGAEVKKPGASMKVSCKASGYTFTDYYIHWVRQAPGQGPEWMGWINPNSGGTNYAQKFQGRVTMTRDTSISTAYMELSRLRSDDTAVYYCARDLWNDDVDYYGMDVWGKGTMVTVSS VL: DIQLTQSPSSLSASVGDRVTITCRASQSISSYLNWYQQKPGKAPKLLIYDASSLQSGVPSRFSGSGSGTEFTLTIRSLQPEDFATYYCQQSYSTPLTFGGGTKLEIKR | > 1.1
3 | antibody 021-M39 (antibody, human IgG1, kappa, V domains shown, 021 with X39 (LCDR1) Y to A) VH: not shown VL: DIQLTQSPSSLSASVGDRVTITCRASQSISTALNWYQQKPGKAPKLLIYAASSLQSGVPSRFSGSGSGTDFTLTISSLQPEDFATYYCQQSYSTPLTFGGGTKVDIKR | 0.4 to 0.6
4 | antibody 021-M35 (antibody, human IgG1, kappa, V domains shown, 021 with X35 (LCDR1) S to A) VH: not shown VL: DIQLTQSPSSLSASVGDRVTITCRASQAISTYLNWYQQKPGKAPKLLIYAASSLQSGVPSRFSGSGSGTDFTLTISSLQPEDFATYYCQQSYSTPLTFGGGTKVDIKR | 0.8 to 1.1
5 | antibody 021-M40 (antibody, human IgG1, kappa, V domains shown, 021 with X40 (LCDR2) A to S) VH: not shown VL: DIQLTQSPSSLSASVGDRVTITCRASQSISTYLNWYQQKPGKAPKLLIYSASSLQSGVPSRFSGSGSGTDFTLTISSLQPEDFATYYCQQSYSTPLTFGGGTKVDIKR | > 1.1
6 | antibody 021-M42 (antibody, human IgG1, kappa, V domains shown, 021 with X42 (LCDR2) S to A) VH: not shown VL: DIQLTQSPSSLSASVGDRVTITCRASQSISTYLNWYQQKPGKAPKLLIYAAASLQSGVPSRFSGSGSGTDFTLTISSLQPEDFATYYCQQSYSTPLTFGGGTKVDIKR | 0.6 to 0.8
7 | antibody 021-M36 (antibody, human IgG1, kappa, V domains shown, 021 with X36 (LCDR1) I to A) VH: not shown VL: DIQLTQSPSSLSASVGDRVTITCRASQSASTYLNWYQQKPGKAPKLLIYAASSLQSGVPSRFSGSGSGTDFTLTISSLQPEDFATYYCQQSYSTPLTFGGGTKVDIKR | 0.4 to 0.6
8 | antibody 095 (antibody, human IgG1, kappa, V domains shown) VH: not shown VL: DIQLTQSPSSLSASVGDRVTITCRASQSISSYLNWYQQKPGKAPKLLISAASSLQSGVPSRFSGSGSGTDFTLTISSLQPGDLATYYCQQSYSTPLTFGGGTKVEIKR | > 1.1
9 | antibody 021-M41 (antibody, human IgG1, kappa, V domains shown, 021 with X41 (LCDR2) A to S) VH: not shown VL: DIQLTQSPSSLSASVGDRVTITCRASQSISTYLNWYQQKPGKAPKLLIYASSSLQSGVPSRFSGSGSGTDFTLTISSLQPEDFATYYCQQSYSTPLTFGGGTKVDIKR | 0.8 to 1.1
10 | antibody 090 (antibody, human IgG1, kappa, V domains shown) VH: EVQLVQSGAEVKKPGASMKVSCKASGYTFTDYYIHWVRQAPGQGPEWMGWINPNSGGTNYAQKFQGRVTMTRDTSISTAYMELSRLRSDDTAVYYCARDLWNDDVDYYGMDVWGKGTMVTVSS VL: EIVLTQSPGTLSLSPGERATLSCRASQSVSSYLAWYQQKPGQAPRLLIYGASSRATGIPARFSGSGSGTEFTLTISSLQSEDFATYYCQQSYSTPLTFGPGTKVEIKR | 0.8 to 1.1
11 | antibody 091 (antibody, human IgG1, kappa, V domains shown) VH: EVQLVQSGAEVKKPGASMKVSCKASGYTFTDYYIHWVRQAPGQGPEWMGWINPNSGGTNYAQKFQGRVTMTRDTSISTAYMELSRLRSDDTAVYYCARDLWNDDVDYYGMDVWGKGTMVTVSS VL: EIVLTQSPATLSLSPGERATLSCRASQSVSSYLAWYQQKPGQAPRLLIYDASNRATGIPARFSGSGSGTDFTLTISSLEPEDFATYYCQQSYSTPLTFGGGTKVDIKR | 0.8 to 1.1
12 | antibody 083 (antibody, human IgG1, kappa, V domains shown) VH: EVQLVQSGAEVKKPGASVKVSCKASGYTFTYYYMHWVRQAPGQGLEWMGWINPNSGGTNYAQKFQGRVTITADKSTSTAYMELSSLRSEDTAVYYCARDVWQQGGYYYYMDVWGKGTLVTVSS VL: not shown | > 1.1
13 | antibody 096 (antibody, human IgG1, kappa, V domains shown) VH: not shown VL: ETTLTQSPSTLSASVGDRVTITCRASQSISSYLNWYQQKPGKAPQLLIYTASSLQSGVPSRFSGSGSGTDFTLTISSLQPEDFATYYCQQSYSTPLTFGQGTRLEIKR | > 1.1
